Patent KR20140085790A (dated 2014)

Legend:
[1] = biological target: T1, 인간 DLL4 단백질 세포외 도메인 (R&D Systems Cat: 1506-D4/CF) (human, UniProt Q9NR61 27-529); assay: competition ELISA: antibody (2 pM-35 nM) premixed with DLL4 antigen (800 ng/ml), added to coated hNotch-1-hFc; bound DLL4 detected with an HRP anti-His reagent
T1 construct: extracellular domain; Bought protein; also called hDLL4-His; human DLL4; not shown: His tag (hDLL4-His)

[2] = biological target: T1, 인간 DLL4 단백질 세포외 도메인 (R&D Systems Cat: …); assay: SPR (BIACORE T200), DLL4 coated on the chip, antibody injected

T1 sequence (Q9NR61 27-529): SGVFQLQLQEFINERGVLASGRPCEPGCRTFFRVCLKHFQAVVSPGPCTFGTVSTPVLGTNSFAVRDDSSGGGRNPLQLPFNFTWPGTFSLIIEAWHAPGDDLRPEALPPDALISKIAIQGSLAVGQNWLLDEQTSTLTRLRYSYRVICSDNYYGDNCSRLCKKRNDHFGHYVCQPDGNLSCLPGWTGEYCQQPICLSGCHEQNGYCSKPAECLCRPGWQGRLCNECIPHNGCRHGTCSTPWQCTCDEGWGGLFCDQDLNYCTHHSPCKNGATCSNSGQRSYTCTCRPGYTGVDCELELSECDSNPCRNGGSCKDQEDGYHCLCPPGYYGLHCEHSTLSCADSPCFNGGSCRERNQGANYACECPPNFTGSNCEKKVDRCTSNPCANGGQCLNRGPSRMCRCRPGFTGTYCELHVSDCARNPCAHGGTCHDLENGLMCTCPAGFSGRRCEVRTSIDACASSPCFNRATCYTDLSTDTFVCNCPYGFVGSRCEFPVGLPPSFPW

B1: 인간 단일클론항체 mh2F (항 DLL4 항체) (antibody, V domains shown)
VH: QVQLVQSGAEVKKPGASVKVSCKASGYTFTSYYLHWVRQAPGQGLEWMGIINPSGGSTSFAQKFQGRVTMTRDTSTSTVYMELSSLRSEDTAVYYCARDSAGGTLDVWGQGTMITVSS
VL: SYELTQPPSVSVAPGKTARITCGGNKIGNKGVHWYQQKPGQAPVLVIYYDKDRPSGIPERFSGSNSGNTATLTISRVEAGDEADYYCQVWDRSTVIFGGGTKLTVLG
notes: Isolated from a human scFv phage library; In ELISA it was detected with an HRP-conjugated anti-Fab reagent; also called anti-DLL4 antibody
IC50 [1]: 1.03 nM
Kd [2]: 5.27 nM
